Data: the supplement of paper PMC9112550, “Optimization of the antimicrobial peptide Bac7 by deep mutational scanning” (BMC Biology, 2022)

Tested on: Escherichia coli TOP10
Assay: shrunken log2 fold change of peptide-encoding DNA abundance (4.5 h post-induction vs induction); higher = less antimicrobial activity (less host growth inhibition)
Details: time post-induction: 4.5 h; library: site-saturation at positions 5, 18, 19, 20
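Further: peptides expressed intracellularly from a pBAD plasmid library in pooled LB shake-flask culture, induced with 0.3% L-arabinose, DNA abundance read by NGS, three biological replicates, DESeq2 with apeglm shrinkage.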

Sequence	shrunken log2 fold change
RRIRARPPRLPRPRPRPFTEPRP	-0.261
RRIRARPPRLPRPRPRPFVVPRP	-0.312
RRIRARPPRLPRPRPRPFWKPRP	-0.13
RRIRARPPRLPRPRPRPFYVPRP	-0.383
RRIRARPPRLPRPRPRPGAGPRP	0.767
RRIRARPPRLPRPRPRPGAMPRP	0.959
RRIRARPPRLPRPRPRPGDGPRP	0.939
RRIRARPPRLPRPRPRPGGRPRP	0.525
RRIRARPPRLPRPRPRPGHHPRP	0.127
RRIRARPPRLPRPRPRPGHWPRP	0.628
RRIRARPPRLPRPRPRPGKKPRP	-0.133
RRIRARPPRLPRPRPRPGKNPRP	0.124
RRIRARPPRLPRPRPRPGKPPRP	0.154
RRIRARPPRLPRPRPRPGLAPRP	1
RRIRARPPRLPRPRPRPGLVPRP	0.542
RRIRARPPRLPRPRPRPGMMPRP	0.207
RRIRARPPRLPRPRPRPGNQPRP	-0.0242
RRIRARPPRLPRPRPRPGPCPRP	0.251
RRIRARPPRLPRPRPRPGPHPRP	0.568
RRIRARPPRLPRPRPRPGPLPRP	0.429

Sequence	shrunken log2 fold change
RRIRARPPRLPRPRPRPGPYPRP	1.85
RRIRARPPRLPRPRPRPGRKPRP	0.43
RRIRARPPRLPRPRPRPGVCPRP	0.571
RRIRARPPRLPRPRPRPGVEPRP	0.118
RRIRARPPRLPRPRPRPGVKPRP	0.0545
RRIRARPPRLPRPRPRPGWEPRP	0.274
RRIRARPPRLPRPRPRPGYDPRP	-0.0224
RRIRARPPRLPRPRPRPGYSPRP	-0.35
RRIRARPPRLPRPRPRPHCEPRP	-0.113
RRIRARPPRLPRPRPRPHCLPRP	-0.116
RRIRARPPRLPRPRPRPHDMPRP	0.245
RRIRARPPRLPRPRPRPHEIPRP	-0.107
RRIRARPPRLPRPRPRPHFNPRP	0.122
RRIRARPPRLPRPRPRPHFSPRP	0.0805
RRIRARPPRLPRPRPRPHINPRP	-0.325
RRIRARPPRLPRPRPRPHLFPRP	0.117
RRIRARPPRLPRPRPRPHLVPRP	0.0104
RRIRARPPRLPRPRPRPHMIPRP	0.028
RRIRARPPRLPRPRPRPHMVPRP	-0.069
RRIRARPPRLPRPRPRPHNFPRP	-0.108

Sequence	shrunken log2 fold change
RRIRARPPRLPRPRPRPHPQPRP	0.45
RRIRARPPRLPRPRPRPHPRPRP	0.696
RRIRARPPRLPRPRPRPHRQPRP	0.29
RRIRARPPRLPRPRPRPHSDPRP	0.39
RRIRARPPRLPRPRPRPHTGPRP	-0.365
RRIRARPPRLPRPRPRPHTSPRP	-0.218
RRIRARPPRLPRPRPRPHVQPRP	0.00547
RRIRARPPRLPRPRPRPHWSPRP	-0.0356
RRIRARPPRLPRPRPRPHYFPRP	0.0061
RRIRARPPRLPRPRPRPHYGPRP	0.0153
RRIRARPPRLPRPRPRPHYSPRP	0.141
RRIRARPPRLPRPRPRPHYYPRP	-0.146
RRIRARPPRLPRPRPRPIADPRP	0.394
RRIRARPPRLPRPRPRPIAYPRP	0.21
RRIRARPPRLPRPRPRPICQPRP	0.216
RRIRARPPRLPRPRPRPICSPRP	0.251
RRIRARPPRLPRPRPRPIDEPRP	0.379
RRIRARPPRLPRPRPRPIDKPRP	0.236
RRIRARPPRLPRPRPRPIDQPRP	0.444
RRIRARPPRLPRPRPRPIDYPRP	-0.228
